# From the nanobody polyreactivity screen of Harvey et al. (2022)
# Experiment: yeast display, Sf9 membrane polyspecificity reagent, FACS + sequencing; frameworks hold sequencing errors
# How it was run: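 After 36–48 hours of galactose induction, yeast (Saccharomyces cerevisiae BJ5465) displaying a synthetic nanobody library were stained at 4 °C for 1 hour with 10% biotinylated, detergent-solubilized Sf9 membrane reagent. Streptavidin microbeads enriched the stained cells before FACS sorting into low and high (top ~1%) gates on anti-HA and streptavidin fluorescence. Each clone's polyreactivity label reflects its gate of origin.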
row,Sequence,polyreactivity (PSR sort gate)
1,QVQLEDSLGGLVQAGGSLRLSCAASGGIFGLYDMGWYRQEPGKERELVAAISWSGGDTYYADSVKGRFTISRDNAKNTVYLQMNSLKPEDTAVYYCAADTYYYSGYEYDYWGQGTQVTVSS,high polyreactivity
2,QVQLEDSRVGLVQAVGILRLSCASSGSTIDDNVMGWYRQAPRNERELVAAICSSGGSPYYADSVKGRFTISRDNAKNTDYLLMNSLKPEDTAVYYCNAVYFRLWGYYDRRSYNYWGQGTQVTVSS,low polyreactivity
3,QVQLEEAVGGLLQAGGSLRFSCAASGGLFWVYAMGRYRQAPGKERELVAAISNSDTSTSYADSVKGRFTISRDNAQNTVYLQMNSLKAEDTAVYYCKADSPSLSGDSWGQGTQVNVSS,low polyreactivity
4,QVQLEESAGGLVQAGGSLRLSCAASGLTFNYYAMGWYRQAPGKERELVAAITGRGGSTYYADSVKGRFTISRDNAKNTVYLQMNSLKPEDTAVYYCAADGGTRGYDYWGQGTQVTVSS,low polyreactivity
5,QVQLEESGAALVQAGGSLRLSCAAMGWYRQSPGKERELLATITWSGGSTYYADSVKGRFTISRDNAKNTVYLQMNSLKPEDTAVYYCTARATLLSPANTIRGYDYWGQGTQVTVSS,low polyreactivity
6,QVQLEESGGGFVQAGGRLRLSCAASGSIFQAYFMGWYRQAPGKERELVADISRSGGRTYYADSVKGRFTISRDNAKNTVYLQMNSLKPEDTGVYYCAADWRHLLYRGGLQYEYWGQGTQVTVSS,high polyreactivity
7,QVQLEESGGGFVQAGGSLRLSCAASGYIFFPHAMGWYRQATWKERELVAAINSRGASTYYADSVKGRFTISRDNAKNTVSLQMNSLKPVDTAVYYCAKGSGLHIYHYYGVPYDYWGQGTQVTVSS,low polyreactivity
8,QVQLEESGGGIVQAGGSLRLSCAASGSTFRKYAMRWYRQAPGKERDFVAAITWSTGTTYYADSVKGRFTISRDNAKNTVYLQMNSLKPEDTAVYFCAADSQPPHELYESIEHESWGQGTQVTVSS,low polyreactivity
9,QVQLEESGGGLDQAGGSLRLSCAASGLILDYNDIGGYRQAAGQERELVASITGGGSTYYADSVKGRFRISRDNAKNTVYLQMNSLKPQDTSVYSCNADPVGVYCFDLDYWGQGTQVTVSS,low polyreactivity
10,QVQLEESGGGLDQAGGSLRLSCAASGRTLATYAMGWYRQAPGKERELVAAISSSGTRTYYADSVKGRFTISRDNAKNTVYFQMNSLNPEDTAVYYCNAGPGYDYWGQGTQLTVSS,high polyreactivity
11,QVQLEESGGGLFQAGGSLRLICAATGSIFRVYVMGWYIQAPGKERELVAAITSSDGTTYYADSVKGRFTISRDNAKNTVYLQMNSLKPEDTALYYCNAEFYSPPVVGPRYWYPGFYWGQGTQVTVSS,low polyreactivity
12,QVQLEESGGGLFQAGGSLRLSCAASGSTFADNAMGWYRQATGKEAEFVAGISTNGGSTYYADSVKGRFTISRDNAKNTVYLQMNSLKPEDTAVYYCNADSIDPFLYDYWGQGTQVTVSS,low polyreactivity
13,QVQLEESGGGLRQAGGRLRLSCAASGRTFYVNAKGWYRQAPGKERELVAAISWSGGSTYYADSVKGRFTITRDNAKNTVYLQMNSLKPEDTAVYYCAAEDIEVYEYWGQGTQVTVSS,low polyreactivity
14,QVQLEESGGGLVHAGGSLRLSCAASGFTFYSYAMGWYRQAPGKERELVAAITQSGGSTYYADSVKGRFTISRDNAKNTVYFQMNSLKPEDTAVYYCAAGRRSSWRYYLWYDYWGQGTQVTVSS,low polyreactivity
15,QVQLEESGGGLVHAGGSLRLTCDAYGYIFALNPIVWNRQAPGNESEVVAAINDSGDSTYYADSLKGRFTISRDNSKNTVYLQMNSLNPEDSAVYYCAADTRYRYGAFPYYEYDNWGQGTQVTVSS,low polyreactivity
16,QVQLEESGGGLVKARGSLRLSCAASGRTFNFYYMGWYRQAPGKERELVAAISSSGGSTYYADSVKGRFTISRDTAKYTVYLQMISLIPEDTAVYYCAKGPLYSLCFQHDAPYRYGYWGQATQVTVSS,low polyreactivity
17,QVQLEESGGGLVQAEGSLRLICAASGSTFVYAMGWYRQSPGKERELVAAISYSGGSTYYADSVKGRFTISRDNAKTTVYLQMNSLKPEDTAVYYCAAYLVISAQRYYYWGQGTQVTVSS,high polyreactivity
18,QVQLEESGGGLVQAGCSLRLSCAASGSTFVRYAMGWYRQAPGKERELVAAISWSGASTYYADSVKGRFTISRDNAKNTVYLQMNSLKPEDTAVYYCAARSRWYDAAGYQKYYYWGQGSQVTVSS,high polyreactivity
19,QVQLEESGGGLVQAGGRLRLSCAASGIIYDFYAMGWYRQAPGKERELVAAITSSGGSTYYADSVKGRFTISRDNAKKTVYLQMNSLKPEDTAVDYCAAEYTIYGTDQRYYYWGQGTQVTVSS,low polyreactivity
20,QVQLEESGGGLVQAGGRLRLSCAASGRIIYGYAMGWYRQAPGKERELVAAITATYYADSVKGRFTISRDNAKNTVYLQMNSLKPEDTAVYYCYAYLSPKQPLSPPDPTFEGGYWGQGTQVTVSS,low polyreactivity
21,QVQLEESGGGLVQAGGRLRLSCAASGRIYTKYAMGWYRQAPGKERELVAAISGSGGNTYYADSVKGRFTISRDNAKNTVYLQMNSLKPEDTAVYYCNRAKNAYLMDYWGQGTQVTVSS,high polyreactivity

row,Sequence,polyreactivity (PSR sort gate)
1,QVQLEESGGGLVQAGGRLRLSCAASGSIFGFYAMGWYRQAPGKERELVASITISGGSTYYADSVKGRFTISRDNAKNTVYLQMNSLKPEDTAVYYGAARRYWDYNYWGQGTQVTVSS,low polyreactivity
2,QVQLEESGGGLVQAGGRLRLSCAASGSIWSYAMGWYRQAPGKERELVAAISSTGGSTYYADSVKGRFTISRDNAKNTVYLQMNSLKPEDTAVYYCAKGRRYDQSHYNYWGQGTQVNVSS,high polyreactivity
3,QVQLEESGGGLVQAGGSHRLSCAASGPTFRRNVMGWSRQAPGKEREFVAAITWSGGNTYYADSVKGRITISRDNAKYTVFLQMYSLKREDTAVYYCNARSAIWGWGYGSYDYWGLGTQVTVSS,low polyreactivity
4,QVQLEESGGGLVQAGGSIRLSCAASGSTLVGNAMGWYRQAPGKERELVATIDLSDDITYYADSVKGRFTSSRDNAKNTFYLQMNSLKPEDTAVYYCSAEYYLYSTYTVSYGKYDYWGQGTQGTVSS,high polyreactivity
5,QVQLEESGGGLVQAGGSLRIICAASGRTFQLYAMGWYRQAPGKERELVAAITWSSGRTSYADSVKGRFTISRDNAKNTVYLQMNSLKPEDTAVYYCAADVWGGLLPGYDYWGQGTQVTVSS,high polyreactivity
6,QVQLEESGGGLVQAGGSLRISCAASGSIVRYKAMGWYRQAHGKERELVAAISSRGGSTYYADSVKGRFTISRDNAKNTVYLQMNSLKPEDTAVYYCNVRWTYKYDYWGQGTQVTVSS,high polyreactivity
7,QVQLEESGGGLVQAGGSLRLCCAASGFTFDYNAKGWYRQPPGKLRDLVAVISSSGSRTYYADSVKGRFTISRDYAKNTVYLQMNSLKPEDSAVYYWAGARIGTSDYWGQGTQVTESS,high polyreactivity
8,QVQLEESGGGLVQAGGSLRLCCAASGRTFYYAMGWYRQATGKDRYADSVKGRFTISRDNAKNTVYLQMNSLKPDDTSVYYCAAKVTEPPSLDDSDYWGQGTQVTVSS,low polyreactivity
9,QVQLEESGGGLVQAGGSLRLICAASGGTISKYAMGWYRQAPGTEMELVAAITYSSGSTYYADSVKGRFTISRDNAKNTVYLQMNSLKPEDTAVYYCAARSGLYWWRFDYWGQGTLVTVSS,high polyreactivity
10,QVQLEESGGGLVQAGGSLRLICAASGRIFGVNAMGWYRQAHGKERELVAVISSGGSTYYADSVKGRFTISRDNAKNTVYLQMNSLKPEDTAVYYCNAVVGSWFPYNLSDYWGEGTQVTVSS,low polyreactivity
11,QVQLEESGGGLVQAGGSLRLICAASGRTFSGNTMGWYIQAPGKERELVAAITGRGGSTYYADSEKGRFTISRDNEKNTVYLQMNSLKPVDTAVYYCAALRYTFAGRFDYWGQGTQVTVSS,high polyreactivity
12,QVQLEESGGGLVQAGGSLRLICAASGRTFVYYAMGWYRQAPGKERELVAAISTGGSTNYADSVKGRFTISRDNAKNTVYLQMNSLKTEDTAVYYCAAQYYISISKYDYWGQGTQVTVSS,low polyreactivity
13,QVQLEESGGGLVQAGGSLRLICADSGFTFVYYARGWYRQAPGKERELVATISGNGGRTYYADSVKGRFTISRDNAKNTVYLQMNSLKPEDTAVYYCNADDPYLYYDSYDYWGQGTQVTVSS,low polyreactivity
14,QVQLEESGGGLVQAGGSLRLIWAASGFIFRTYTMGWYRQAPGKERELVATIDSSGGSTYYADSVKGRFTISRDNAKNTVYLQMNSLKPEDTAVYYCNADLRELSPWYWYSGEMDYWGQGTQVTVSS,low polyreactivity
15,QVQLEESGGGLVQAGGSLRLSCAASGFICKRYARGWYRQAPGKERELVAAITTSGGRTYYADSVKGRFTISRDNAKNTVYLQMNSLIPEDTAVYYCAAAQPGTNAYRVGSWGQGTQVTVSS,high polyreactivity
16,QVQLEESGGGLVQAGGSLRLSCAASGFIFAQYAMGWYRKAPRKDRELVAAISWSGGSTYYADSVKGRFTISRDNAKNTVYLQMNSLKPEDTAVYYCAALFRNKSRYRYGYWGQGTQVTVSS,high polyreactivity
17,QVQLEESGGGLVQAGGSLRLSCAASGFIFPYYAMGWYRQAHGQERELVAAISRSGGRTYYADSVKGRFTISRDNAKNTVYLQMNSLKPEDTAVYYCNAPFQSEPFDYWGQGTQVTVSS,high polyreactivity
18,QVQLEESGGGLVQAGGSLRLSCAASGFIFRYYAMGWYRQAPGKERELVAAISWSGGSTYYADSVKGRFTISRDNAKNTVYLQMNSLKPEETAVDYGAADRYAILFYAEDYWGQGTQVTVSS,low polyreactivity
19,QVQLEESGGGLVQAGGSLRLSCAASGFIFVANAMGWYIQAPWKERELVAAISRRGGSTYYADSVKGRFTISRDNAKNTVYLQMNSLKPEDTAVYYCNAYRRGLSGYGYWGQGTQVTVSS,high polyreactivity
20,QVQLEESGGGLVQAGGSLRLSCAASGFIFWANAMGWYRQAPGKERELVAAIRYSGGRTYYADSVKGRFTSSRDTAKNTFFLLMNSLIPEDTAVYYCAKEYKNYGGFVVEYDYWGQGTQVNVSS,low polyreactivity
